Test results as given in patent US20260275304A1, “METHODS AND COMPOSITIONS FOR GLYPHOSATE TOLERANCE IN PLANTS” (Monsanto Technology LLC, priority 2023, published 2026).
Positions count from the first letter of the chain named. Names and notes keep the numbering of the source.

B1: TIPS: Zea mays EPSPS double mutant T102I and P106S, SEQ ID NO:9; positive control (protein)
chain: AGAEEIVLQPIKEISGTVKLPGSKSLSNRILLLAALSEGTTVVDNLLNSEDVHYMLGALRTLGLSVEADKAAKRAVVVGCGGKFPVEDSKEEVQLFLGNAGIAMRSLTAAVTAAGGNATYVLDGVPRMRERPIGDLVVGLKQLGADVDCFLGTDCPPVRVNGIGGLPGGKVKLSGSISSQYLSALLMAAPLALGDVEIEIIDKLISIPYVEMTLRLMERFGVKAEHSDSWDRFYIKGGQKYKSPKNAYVEGDASSASYFLAGAAITGGTVTVEGCGTTSLQGDVKFAEVLEMMGAKVTWTETSVTVTGPPREPFGRKHLKAIDVNMNKMPDVAMTLAVVALFADGPTAIRDVASWRVKETERMVAIRTELTKLGASVEEGPDYCIITPPEKLNVTAIDTYDDHRMAMAFSLAACAEVPVAIRDPGCTRKTFPDYFDVLSTFVKN
modifications: Zea mays
notes: positive control
B2: TIPS-P126S-K296R: maize EPSPS variant, probably SEQ ID NO:11 (protein)
chain: B1 chain with P126S, K296R
modifications: Zea mays

Legend:
[1] = tested on: S. cerevisiae strain sKR-024; assay: Growth of synthetic yeast strain sKR-024 expressing EPSPS variants with or without glyphosate; type: cell-based, Saccharomyces cerevisiae; details: for growth in yeast minimal media without glyphosate: 0 mM glyphosate
Description: EPSPS variants were re-cloned into a clean p416-Core1p backbone and transformed into strain sKR-024 as described above. Colonies were then picked in triplicate into YSC-Ura-Leu and outgrown for 2 days at 30° C. Cultures were then diluted back to OD 0.001 in yeast minimal media (YMM) containing varying amounts of glyphosate as indicated. Growth rate measurements were then obtained using an Infinite M200 PRO microplate reader (Tecan, Männedorf, Switzerland) with incubation at 30° C. for 72-120 hours depending on growth rate of selected variants.
To determine if this system could further corroborate observations from previous literature, the well-studied EPSPS mutants T102I and P106S, and the combined double mutant TIPS (T102I-P106S) were generated and complemented into this yeast system. These mutations were reported to result in varying degrees of glyphosate resistance.
Having established low copy number and weak promoter expression of EPSPS variants, it was sought to recharacterize phenotypes under field conditions that are used in planta. […] It has been reported previously that under standard glyphosate foliar application, 0.3 mM or more of glyphosate (gly) can accumulate in a plant's root nodules and meristems. […] These trends support reported literature of mutants P106S and TIPS grown in various plant hosts. As a result, the present synthetic yeast model system closely resembles in planta observations and thus can be used to select for dual-trait EPSPS variants aimed at both enzymatic efficiency and glyphosate resistance.
Select mutants isolated from the final directed evolution campaign with the improved selection strategy were further evaluated in assorted glyphosate concentrations to determine growth characteristics. Mutants isolated from an EPSPS background were evaluated in media containing 0 mM and 0.25 mM glyphosate with the latter being the concentration at which wild-type EPSPS cannot grow after 100 hours. […] The non-glyphosate mono selection highlighted in blue represents mutations resulting from 5 subcultures in 0 mM glyphosate. The low glyphosate dual selection highlighted in light green represents mutants resulting from an additional subculture into 0.5 mM glyphosate. Lastly, the high glyphosate dual selection highlighted in dark green represent mutations isolated after subcultures in increasing levels of glyphosate, up to 10 mM.

[2] = tested on: S. cerevisiae strain sKR-024; assay: Mock selection for glyphosate resistance, 50:50 inoculum, flow cytometry; type: cell-based, Saccharomyces cerevisiae
Description: Yeast cultures were either started directly from a random colony or from freezer stock and picked in triplicate into appropriate selective media, either YSC-Ura, YSC-Leu, and YSC-Ura-Leu. Cultures were grown for 48 hours at 30° C. to saturation phase. Fully grown yeast cultures were then diluted back to OD 0.01 and allowed to grow for 48 hours at 30° C. in a 96 deep-well plate shaker. Fluorescence was then analyzed via flow cytometry (BD Accuri C6 Flow Cytometer, BD Biosciences) at an excitation of 588 nm and emission of 633 nm for mKate2 RFP. Yeast populations of interest were then gated according to relative size and complexity using a logarithmic plot of side scatter (SSC) and forward scatter (FSC) and spectra were generated outlining RFP fluorescence intensity vs. cell count. FlowJo software was used to analyze all flow cytometry data.
To do so, a mock selection for glyphosate resistance was achieved by transforming wild-type EPSPS into sKR-024 containing an RFP cassette and TIPS into sKR-024 without an RFP cassette to enable flow cytometry tracking of population distributions. A 50:50 starting inoculum of each strain was cultured in yeast minimal media containing 0, 2.5, 5, 7.5, or 10 mM glyphosate.

transgenic maize plants = assay: Maize transformation with glyphosate selection, plantlet recovery and quality checks; type: in vivo, Zea mays; details: for Number of young plants passing quality control checks: in vivo; for Number of plantlets generated: under glyphosate selection, same amount of starting material
From the text: Maize was used as a model system to test the functionality of the EPSPS variants because of detailed previous characterization of glyphosate tolerance in maize and a suitable transgenic plant generation protocol that relies on glyphosate. Plant transformation vectors were generated in which the native maize EPSPS sequence was used, which includes the native gene promoter elements, the native introns and exons and the native 3′ untranslated region and introduced mutations that corresponded to each of the selected amino acid changes. The native sequence was used to mimic as closely as possible how the selected EPSPS variants would perform if the variants were introduced directly in the genome without the help of strong expression elements. The following variants were selected for testing in a transgenic maize system: TIPS (as a control); TIPS-P126S-M217L-K296R; TIPS-P126S-K296R; T102I-P126S-K296R (where only the T102I change is present); P106S-P126S-K296R (where only the P106S change is present); and P126S-K296R (where neither of the TIPS changes are present).
Transgenic maize plants that expressed each of the six EPSPS variants were generated to determine if the variants conferred glyphosate tolerance to plants. The full DNA sequence encoding TIPS EPSPS (SEQ ID NO:1) was cloned from maize genomic DNA. In this sequence, the promoter and 5′ UTR are nucleotides 1:2556; the chloroplast transit peptide sequence is nucleotides 2557:2742; EXON 1 is nucleotides 2743:2856; INTRON 1 is nucleotides 2857:3384; EXON 2 is nucleotides 3385:3626; INTRON 2 is nucleotides 3627:3725; EXON 3 is nucleotides 3726:3879; INTRON 3 is nucleotides 3880:4152; EXON 4 is nucleotides 4153:4367; INTRON 4 is nucleotides 4368:4877; EXON 5 is nucleotides 4878:4995; INTRON 5 is nucleotides 4996:5155; EXON 6 is nucleotides 5156:5366; INTRON 6 is nucleotides 5367:5446; EXON 7 is nucleotides 5447:5508; INTRON 7 is nucleotides 5509:5617; EXON 8 is nucleotides 5618:5836; and the 3′ UTR is nucleotides 5837:6368. Mutations were then introduced into the EPSPS coding sequence in order to produce each of the six EPSPS variants to be tested. These mutated full genomic DNA sequences were then each cloned as a single expression cassette into plant transformation vectors.
Agrobacterium tumefaciens-mediated plant transformation was performed using methods known in the art. Glyphosate selection was used to select for transgenic events containing the transgene of interest and further screened for only those EPSPS variants that provided effective glyphosate tolerance in a plant cell. While all six EPSPS variants began the transformation process with the same amount of starting maize cellular material, there were differences in the number of small plantlets recovered that were capable of being transplanted to greenhouse soil media (Table 4). Transgenic events were further analyzed to determine transgene copy number. Healthy events with single copy of the transgene of interest were grown in the greenhouse soil media. Only three of the six EPSPS variants had more than one plant surviving. Up to twenty-five of these developing R0 plants were transplanted to larger pots and allowed to grow to maturity for seed collection in the greenhouse.

Row | Molecule | growth in yeast minimal media without glyphosate [1] | growth in glyphosate ([1]; 0.5 mM glyphosate, Core1p promoter) | order of glyphosate tolerance ([1]; 5 mM glyphosate, FIG. 1 Panel C) | cell count after addition of glyphosate ([2]; 0, 2.5, 5, 7.5 or 10 mM glyphosate) | cell count in the absence of glyphosate ([2]; 0 mM glyphosate) | Number of young plants passing quality control checks (transgenic maize plants) | Number of plantlets generated (transgenic maize plants) | growth across glyphosate levels ([1]; 0.05 mM to 5 mM glyphosate)
1 | B1 | grew at a significant deficit | grew well in the presence of glyphosate | P106S<T102I<TIPS | consistent cell count across multiple levels of glyphosate | consistently lower cell count of TIPS relative to wild-type EPSPS | 35 | 192 | –
2 | B2 | performed very similarly to wild-type EPSPS | – | – | – | – | 38 | 190 | performed extremely well in every condition of glyphosate
